According to patent US20170326260A1:
Substitutions are numbered along the chain they refer to. Values belong to the binder of their own block, whether it stands above or below them.

Target: partially (~50%) activated 3954-1204-c225v5
Assay: sandwich ELISA in human plasma; clone 41 coated as capture, biotinylated detection antibody, streptavidin-HRP, OD 450 nm

- signal relative to the signal for intact 3954-1204-c225v5: 50 % lower
B1: antibody 58-1 (antibody, V domains shown)
VH: QSVEESGGRLVMPGGSLTLTCTVSGIDLSRYGMAWFRQAPGKGLKYIGAISSSGNEDYASWAIGRFTISKTSTTAELKMTSLTTEDTATYFCGRGWLSNNAYMWGPGTLVTVSS
VL: PVLTQTPTPVSAAVGGTVTINCQASQSIYNKNQLSWFQQKPGQPPKLLIHYASTLASGVSSRFKGSGSGTQFTLTISDVQCDDAATYYCLGDFSCSGVDCLVVGGGTEVVVEG

- signal relative to the signal for intact 3954-1204-c225v5: 50 % lower
B2: antibody 72-3 (antibody, V domains shown)
VH: B1 VH with R30H, K45E, A62P, I63K, A75V, E76T, A101V
VL: B1 VL with P1Q, T8P, P9S, F37L, L47V, V102S
